Test results published in paper PMC1807944.
Where two headings read alike, the source gives them in different places.

Assays:
Experiment in all cases: SAXS titration
[1] = molecular target: T1, HIV-1 integrase (IN), monomer E (HIV-1, UniProt P04585 1148-1435)
[2] = molecular target: T1, HIV-1 integrase (IN), monomer E; remark: listed apart in the source
[3] = molecular target: T1, HIV-1 integrase (IN), monomer E; remark: listed apart in the source

B1: ss 19-CA (ssDNA)
DNA: GTGTGGAAAATCTCTAGCA
- Kd [1]: 30 ± 15 nM

B2: ss GCAGT (ssDNA)
DNA: GCAGT
- Kd [2]: 7.1 ± 0.7 µM

B3: ss A5 (ssDNA)
DNA: AAAAA
- Kd [2]: 2.6 ± 0.4 µM

B4: ss 21-GT (ssDNA)
DNA: GTGTGGAAAATCTCTAGCAGT
- Kd [3]: 10.6 ± 10 nM
